We go through 1 molecule from publication PMC11514473, “The transition state for coupled folding and binding of a disordered DNA binding domain resembles the unbound state” (Nucleic Acids Research, 2024).

In data set [1] the target is T1, 285bZIP E299G (human, UniProt P16220-1 285-339, C300S;C310S;C337S;E299G).
T1 sequence: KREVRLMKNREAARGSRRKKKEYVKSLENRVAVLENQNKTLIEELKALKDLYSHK
The data set is described as follows: stopped-flow fluorescence (koff/kon); 10 mM Mg2+; 10 mM MES pH 6.5, 150 mM NaCl, 10 mM MgCl2, 0.05% Tween-20, 25 C; NMR: 10 mM Tris-d11, 150 mM NaCl, 10 mM MgCl2, 1 mM NaN3, 5% D2O (NOE at 25 C). The following applies: protein: recombinant; tags: extra N-terminal Gly; chain copies: 2; label: 5' Alexa Fluor 488; hairpin (self-annealing, 11 bp stem, CCCC loop).

The target of data set [2] is T2, CREB 285bZIP wild type (pseudo-WT, Cys to Ser) (human, UniProt P16220-1 285-339, C300S;C310S;C337S).
T2 sequence: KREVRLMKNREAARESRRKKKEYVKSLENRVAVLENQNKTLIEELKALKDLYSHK
The data set is described as follows: stopped-flow fluorescence (koff/kon); koff 2.44 s-1 averaged over competitor concentrations; 10 mM Mg2+; 10 mM MES pH 6.5, 150 mM NaCl, 10 mM MgCl2, 0.05% Tween-20, 25 C; NMR: 10 mM Tris-d11, 150 mM NaCl, 10 mM MgCl2, 1 mM NaN3, 5% D2O (NOE at 25 C). Conditions: protein: recombinant; tags: extra N-terminal Gly after TEV cleavage; His6-GB1 removed; chain copies: 2; label: 5' Alexa Fluor 488; hairpin (self-annealing, 11 bp stem, CCCC loop).

As usually defined, the Kd is the free concentration of one partner at which half of the binding sites on the other are occupied at equilibrium, for simple one-to-one binding. Regarding CCTGACGTCAGCCCCCTGACGTCAGG (structured_DNA) [AlexaFluor488-CREh], the values for the Kd in data set [1] and in data set [2] were 2.72 ± 0.15 nM and 0.36 ± 0.04 nM, respectively.
